What all share (experiment): initial rate of epoxide hydrolysis, chiral HPLC
Assay type in all cases: biochemical, Agromyces mediolanus
Holding throughout (conditions): phosphate buffer 0.2 M, pH 8.0, 30 °C (general activity assay), enantiopure substrate

One data set concerns T1, c1ccc(COC[C@@H]2CO2)cc1.
T1 construct: synthetic gene, triple variant, C-terminal His6 (3' end of gene) in pET28a NcoI/XhoI, E. coli BL21(DE3), Ni-NTA purified, about 43 kDa
The source says: (§1) initial rate of epoxide hydrolysis, chiral HPLC on vEH-Am

A further data set has as its system T2, c1ccc([C@@H]2CO2)cc1.
T2 construct: synthetic gene, triple variant, C-terminal His6 (3' end of gene) in pET28a NcoI/XhoI, E. coli BL21(DE3), Ni-NTA purified, about 43 kDa
Excerpt: as §1

Another data set concerns T3, c1ccc([C@H]2CO2)cc1.
T3 construct: synthetic gene, triple variant, C-terminal His6 (3' end of gene) in pET28a NcoI/XhoI, E. coli BL21(DE3), Ni-NTA purified, about 43 kDa
Excerpt: as §1

The next data set deals with T4, c1ccc(COC[C@H]2CO2)cc1.
T4 construct: synthetic gene, triple variant, C-terminal His6 (3' end of gene) in pET28a NcoI/XhoI, E. coli BL21(DE3), Ni-NTA purified, about 43 kDa
Excerpt: as §1

Our source for the Km values is publication PMC6627055, “Enantioselective Hydrolysis of Styrene Oxide and Benzyl Glycidyl Ether by a Variant of Epoxide Hydrolase from Agromyces mediolanus” (Marine Drugs, 2019).

A word on the Km: it is the concentration of substrate that gives half-maximal velocity.

Consider “vEH-Am (Agromyces mediolanus; N240D/S207V/W182F)”, for which the Michaelis-Menten constant (Km) in the data set with c1ccc(COC[C@@H]2CO2)cc1 is 36.5 mM; in the data set on c1ccc([C@@H]2CO2)cc1 it was 5.2 mM; in the data set with c1ccc([C@H]2CO2)cc1, 0.9 mM; with c1ccc(COC[C@H]2CO2)cc1, 9.3 mM.
